“And” between values parts separate entries of the source, which are not always exact repeats. Equal values may be shown once. A value given as a limit tells only on which side of the number the result lay.

The record followed here is US20110158985A1 (published 2011).

First the molecules themselves.
B1: A17b5 Fab (Fab, V domains shown)
VH: QVTLRESGPALVKPTQTLTLTCTFSGFSLSTAGMSVGWIRQPPGKALEWLADIWWDDKKHYNPSLKDRLTISKDTSKNQVVLKVTNMDPADTATYYCARDMIFNWYFDVWGQGTTVTVSS
VL: DIQMTQSPSTLSASVGDRVTITCSLSSRVGYMHWYQQKPGKAPKLLIYDTYYLPSGVPSRFSGSGSGTEFTLTISSLQPDDFATYYCFQGSGYPFTFGGGTKVEIK
B2: A14a4 Fab (Fab, V domains shown)
VH: QVTLRESGPALVKPTQTLTLTCTFSGFSLSTAGMSVGWIRQPPGKALEWLADIWWDDKKSYNPSLKDRLTISKDTSKNQVVLKVTNMDPADTATYYCARDMITNWYFDVWGQGTTVTVSS
VL: DIQMTQSPSTLSASVGDRVTITCLLSSRVGYMHWYQQKPGKAPKLLIYDTYYQTSGVPSRFSGSGSGTEFTLTISSLQPDDFATYYCFQGSGYPFTFGGGTKVEIK
B3: palivizumab Fab (papain cleavage of palivizumab IgG) (Fab, V domains shown)
VH: QVTLRESGPALVKPTQTLTLTCTFSGFSLSTSGMSVGWIRQPPGKALEWLADIWWDDKKDYNPSLKSRLTISKDTSKNQVVLKVTNMDPADTATYYCARSMITNWYFDVWGAGTTVTVSS
VL: DIQMTQSPSTLSASVGDRVTITCKCQLSVGYMHWYQQKPGKAPKLLIYDTSKLASGVPSRFSGSGSGTEFTLTISSLQPDDFATYYCFQGSGYPFTFGGGTKLEIK
notes: also called Palivizumab^a
B4: 6H8 Fab (Fab, V domains shown)
VH: QVTLRESGPALVKPTQTLTLTCTFSGFSLSTAGMSVGWIRQPPGKALEWLADIWWDDKKDYNPSLKSRLTISKDTSKNQVVLKVTNMDPADTATYYCARDMITNFYFDVWGQGTTVTVSS
VL: DIQMTQSPSTLSASVGDRVTITCSASSSVGYMHWYQQKPGKAPKLLIYDTFKLTSGVPSRFSGSGSGTEFTLTISSLQPDDFATYYCFQGSGYPFTFGGGTKVEIK
B5: DG (aka D95/G93) Fab (Fab, V domains shown)
VH: QVTLRESGPALVKPTQTLTLTCTFSGFSLSTAGMSVGWIRQPPGKALEWLADIWWDDKKDYNPSLKSRLTISKDTSKNQVVLKVTNMDPADTATYYCARDMITNFYFDVWGQGTTVTVSS
VL: DIQMTQSPSTLSASVGDRVTITCSASSSVGYMHWYQQKPGKAPKLLIYDTFKLASGVPSRFSGSGSGTEFTLTISSLQPDDFATYYCFQGSGYPFTFGGGTKVEIK
B6: M3H9 Fab (Fab, V domains shown)
VH: QVTLRESGPALVKPTQTLTLTCTFSGFSLSTAGMSVGWIRQPPGKALEWLADIWWDDKKDYNPSLKSRLTISKDTSKNQVVLKVTNMDPADTATYYCARDMIFNWYFDVWGQGTTVTVSS
VL: DIQMTQSPSTLSASVGDRVTITCSASSSVGYMHWYQQKPGKAPKLLIYDTYKQTSGVPSRFSGSGSGTEFTLTISSLQPDDFATYYCFQGSGYPFTFGGGTKVEIK
B7: Y10H6 Fab (Fab, V domains shown)
VH: QVTLRESGPALVKPTQTLTLTCTFSGFSLSTAGMSVGWIRQPPGKALEWLADIWWDDKKDYNPSLKSRLTISKDTSKNQVVLKVTNMDPADTATYYCARDMIFNWYFDVWGQGTTVTVSS
VL: DIQMTQSPSTLSASVGDRVTITCSASSSVGYMHWYQQKPGKAPKLLIYDTRYLSSGVPSRFSGSGSGTEFTLTISSLQPDDFATYYCFQGSGYPFTFGGGTKVEIK
B8: H3-3F4 Fab (Fab, V domains shown)
VH: QVTLRESGPALVKPTQTLTLTCTFSGFSLSTAGMSVGWIRQPPGKALEWLADIWWDDKKDYNPSLKSRLTISKDTSKNQVVLKVTNMDPADTATYYCARDMIFNWYFDVWGQGTTVTVSS
VL: DIQMTQSPSTLSASVGDRVTITCSASSSVGYMHWYQQKPGKAPKLLIYDTFKLASGVPSRFSGSGSGTEFTLTISSLQPDDFATYYCFQGSGYPFTFGGGTKVEIK
B9: P12f4 Fab (Fab, V domains shown)
VH: QVTLRESGPALVKPTQTLTLTCTFSGFSLSTPGMSVGWIRQPPGKALEWLADIWWDGKKHYNPSLKDRLTISKDTSKNQVVLKVTNMDPADTATYYCARDMIFNFYFDVWGQGTTVTVSS
VL: DIQMTQSPSTLSASVGDRVTITCSLSSRVGYMHWYQQKPGKAPKLLIYDTRGLPSGVPSRFSGSGSGTEFTLTISSLQPDDFATYYCFQGSGYPFTFGGGTKVEIK
B10: L1-7E5 Fab (Fab, V domains shown)
VH: QVTLRESGPALVKPTQTLTLTCTFSGFSLSTAGMSVGWIRQPPGKALEWLADIWWDDKKDYNPSLKSRLTISKDTSKNQVVLKVTNMDPADTATYYCARDMITNFYFDVWGQGTTVTVSS
VL: DIQMTQSPSTLSASVGDRVTITCSASSRVGYMHWYQQKPGKAPKLLIYDTFKLASGVPSRFSGSGSGTEFTLTISSLQPDDFATYYCFQGSGYPFTFGGGTKVEIK
B11: A3e2 Fab (Fab, V domains shown)
VH: QVTLRESGPALVKPTQTLTLTCTFSGFSLSTAGMSVGWIRQPPGKALEWLADIWWGDKGHYNPSLKDRLTISKDTSKNQVVLKVTNMDPADTATYYCARDMIFNWYFDVWGQGTTVTVSS
VL: DIQMTQSPSTLSASVGDRVTITCSASSSVGYMHWYQQKPGKAPKLLIYDTFYLHSGVPSRFSGSGSGTEFTLTISSLQPDDFATYYCFQGSGYPFTFGGGTKVEIK
B12: A17h4 Fab (Fab, V domains shown)
VH: QVTLRESGPALVKPTQTLTLTCTFSGFSLSTAGMSVGWIRQPPGKALEWLADIWWDGKKHYNPSLKDRLTISKDTSKNQVVLKVTNMDPADTATYYCARDMIFNWYFDVWGQGTTVTVSS
VL: DIQMTQSPSTLSASVGDRVTITCSPSSSVGYMHWYQQKPGKAPKLLIYDTYYLASGVPSRFSGSGSGTEFTLTISSLQPDDFATYYCFQGSGYPFTFGGGTKVEIK
B13: A16b4 Fab (Fab, V domains shown)
VH: QVTLRESGPALVKPTQTLTLTCTFSGFSLSTAGMSVGWIRQPPGKALEWLADIWWDDKKHYNPSLKDRLTISKDTSKNQVVLKVTNMDPADTATYYCARDMIFNWYFDVWGQGTTVTVSS
VL: DIQMTQSPSTLSASVGDRVTITCLLSSRVGYMHWYQQKPGKAPKLLIYDTMYQASGVPSRFSGSGSGTEFTLTISSLQPDDFATYYCFQGSGYPFTFGGGTKVEIK

The target in one experiment is F protein of RSV (Long strain) (RSV (Long strain), UniProt P12568 26-574). Kind of experiment: cell-based or functional assay.
On to B1, for which the “Microneutralization IC50, Fab” value is 0.406 µg/ml and 0.92 nM.

On to B2, for which the “Microneutralization IC50, Fab” value was > 0.4 µg/ml and > 8 nM.

The target in another experiment is T1, recombinant C-terminally truncated RSV (A2 strain) F protein (RSV (A2 strain), UniProt P03420 26-524).
T1 construct: extracellular domain; also called truncated F protein; extracellular domain of the F protein from RSV A2
In words: SPR (BIAcore), Fab over immobilised F.
With B3, the Kd was determined as 6.07 nM.

The target in another experiment is RSV F protein (purified) (respiratory syncytial virus). In words: SPR (BIAcore), F protein immobilised.
For the molecule B4, the koff is 0.000178 s⁻¹ and 0.000473 s⁻¹; the kon is 314000 M⁻¹ s⁻¹ and 444000 M⁻¹ s⁻¹.

In the case of B5, the dissociation rate constant (koff) is 0.000167 s⁻¹ and 0.000444 s⁻¹.

B6: the off-rate constant (koff) turned out to be 0.000338 s⁻¹ and the kon came to 605000 M⁻¹ s⁻¹.

For B7, the off-rate constant (koff) was 0.000462 s⁻¹ and the kon is 757000 M⁻¹ s⁻¹.

B8: the off-rate (koff) is 0.000445 s⁻¹ and 0.000402 s⁻¹.

B9 had an off-rate constant (koff) of 0.000299 s⁻¹ and a kon of 527000 M⁻¹ s⁻¹.

Take B10: the off-rate (koff) was 0.000192 s⁻¹ and 0.000331 s⁻¹ and 0.000229 s⁻¹.

In a further experiment the target is T1, recombinant C-terminally truncated RSV …. Kind of experiment: SPR (BIAcore), Fab over immobilised F. This is another data set of the same source.
On to B11, for which the dissociation constant Kd was 0.157 nM, the koff turned out to be 9.4e-05 s⁻¹ and the on-rate (kon) was determined as 599000 M⁻¹ s⁻¹.

For B1, the Kd turned out to be 0.124 nM, the off-rate constant (koff) came out at 7.3e-05 s⁻¹ and the on-rate constant (kon) was 590000 M⁻¹ s⁻¹.

Consider B2, for which the Kd was 0.723 nM, the koff is 0.00024 s⁻¹ and the kon came out at 332000 M⁻¹ s⁻¹.

Turning to B12, the Kd stood at 0.202 nM, the off-rate constant (koff) came to 0.000105 s⁻¹ and the kon is 519000 M⁻¹ s⁻¹.

Turning to B13, the equilibrium dissociation constant (Kd) was 0.214 nM, the koff amounted to 0.000105 s⁻¹ and the association rate constant (kon) was 490000 M⁻¹ s⁻¹.
